# Numbering of substitutions follows the chain as printed. Names and notes keep the numbering of the source.
# B1: SS-15132 (antibody, V domains shown)
# VH: EVQLVESGGGLVKPGGSLRLSCAASGFTFSSYSMNWVRQAPGKGLEWVSSISSSSSYHSYADSVKGRFTISRDNAKNSLYLQMNSLRAEDTAVYFCARDYDFHSAHYDAFDVWGQGTMVTVSS
# VL: ESVLTQPPSVSGAPGQRVTISCTGSSSNIGAGYDVHWYQQLPGTAPKLLISGNSNRPSGVPDRFSGSKSGTSASLAITGLQAEDEADYYCQSYDSSLSGSVFGGGTKLTVLG
# notes: 31H4 His variant: HC 68(58), 132(106), parental(113H)
# B2: SS-15497 (antibody, V domains shown)
# VH: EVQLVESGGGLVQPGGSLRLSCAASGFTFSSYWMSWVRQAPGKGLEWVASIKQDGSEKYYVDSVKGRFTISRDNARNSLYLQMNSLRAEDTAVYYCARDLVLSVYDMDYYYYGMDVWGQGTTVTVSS
# VL: DIVMTQSPLSLPVTPGEPASISCRSSQSLLHSGNGYNYLDWYLQKPGQSPQLLIYLGLNRASGVPDRFSGSGSGTDFTLKISRVEAEDVGVYYCMQAIHTPLTFGGGTKVEIKR
# notes: HC VH6 (M103S, I107M), LC G33 insertion, S57L, L97I, Q98H
# B3: SS-15519 (antibody, V domains shown)
# VH: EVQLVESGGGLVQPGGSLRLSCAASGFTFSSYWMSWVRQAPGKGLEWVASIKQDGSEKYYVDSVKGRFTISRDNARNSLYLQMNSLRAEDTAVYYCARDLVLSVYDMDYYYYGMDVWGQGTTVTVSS
# VL: B2 VL with L58W
# notes: HC VH6, LC G33, S57W, L97I, Q98H
# B4: SS-14835 (antibody, V domains shown)
# VH: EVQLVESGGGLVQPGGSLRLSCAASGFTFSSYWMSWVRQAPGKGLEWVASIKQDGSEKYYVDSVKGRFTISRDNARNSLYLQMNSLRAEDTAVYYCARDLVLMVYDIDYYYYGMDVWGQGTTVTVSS
# VL: B2 VL
# notes: HC WT, LC G33 insertion, S57L/L97I, Q98H
# B5: SS-15518 (antibody, V domains shown)
# VH: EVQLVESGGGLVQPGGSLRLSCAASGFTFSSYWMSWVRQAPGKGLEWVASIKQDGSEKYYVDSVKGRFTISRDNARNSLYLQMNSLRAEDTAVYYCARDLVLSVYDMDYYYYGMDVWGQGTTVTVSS
# VL: B2 VL with L58N
# notes: HC VH6, LC G33, S57N, L97I, Q98H
# B6: SS-15516 (antibody, V domains shown)
# VH: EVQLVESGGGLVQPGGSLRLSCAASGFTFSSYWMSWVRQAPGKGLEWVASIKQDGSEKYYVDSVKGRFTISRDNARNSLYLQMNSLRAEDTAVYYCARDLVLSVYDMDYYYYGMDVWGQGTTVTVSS
# VL: B2 VL with L58F
# notes: HC VH6, LC G33, S57F, L97I, Q98H
# B7: SS-14894 (antibody, V domains shown)
# VH: not shown
# VL: B2 VL with I98L, H99Q
# notes: HC I107M, LC G33, S57L
# B8: SS-15515 (antibody, V domains shown)
# VH: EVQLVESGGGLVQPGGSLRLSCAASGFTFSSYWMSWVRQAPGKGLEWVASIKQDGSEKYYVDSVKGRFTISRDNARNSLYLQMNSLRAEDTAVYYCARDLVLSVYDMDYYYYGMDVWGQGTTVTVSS
# VL: B2 VL with L58M
# notes: HC VH6, LC G33, S57M, L97I, Q98H
# B9: SS-15520 (antibody, V domains shown)
# VH: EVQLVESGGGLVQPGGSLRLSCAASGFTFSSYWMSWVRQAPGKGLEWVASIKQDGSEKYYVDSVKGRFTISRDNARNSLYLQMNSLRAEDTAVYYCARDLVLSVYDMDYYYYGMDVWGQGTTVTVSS
# VL: B2 VL with L58Q
# notes: HC VH6, LC G33, S57Q, L97I, Q98H
# B10: SS-15196 (antibody, V domains shown)
# VH: not shown
# VL: B2 VL
# notes: HC I107M, LC G33 insertion, S57L, L97I, Q98H
# B11: SS-15195 (antibody, V domains shown)
# VH: not shown
# VL: DIVMTQSPLSLPVTPGEPASISCRSSQSLLHSNGHNYLDWYLQKPGQSPQLLIYLGLNRAHGVPDRFSGSGSGTDFTLKISRVEAEDVGVYYCMQALQTPLTFGGGTKVEIKR
# notes: HC I107M, LC Y35H, S57L, S61H
# B12: SS-13993 (antibody, V domains shown)
# VH: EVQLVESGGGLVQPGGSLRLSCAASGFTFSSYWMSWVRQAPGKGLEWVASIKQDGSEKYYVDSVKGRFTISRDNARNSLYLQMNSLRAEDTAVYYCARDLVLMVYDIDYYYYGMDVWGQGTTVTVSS
# VL: B11 VL with H61S, S72H
# notes: HC WT, LC Tyr38(35)His, Ser68(57)Leu, Ser83(72)His; also called C02
# B13: SS-13991 (antibody, V domains shown)
# VH: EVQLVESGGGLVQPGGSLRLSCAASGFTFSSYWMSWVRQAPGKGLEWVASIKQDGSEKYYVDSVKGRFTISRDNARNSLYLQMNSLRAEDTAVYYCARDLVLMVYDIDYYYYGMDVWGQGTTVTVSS
# VL: B11 VL
# notes: HC WT, LC Tyr38(35)His, Ser68(57)Leu, Ser72(61)His; also called A02
# B14: SS-15499 (antibody, V domains shown)
# VH: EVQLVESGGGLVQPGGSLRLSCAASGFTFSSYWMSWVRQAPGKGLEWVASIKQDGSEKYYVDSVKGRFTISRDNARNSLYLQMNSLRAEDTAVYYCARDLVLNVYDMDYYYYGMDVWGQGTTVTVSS
# VL: B2 VL
# notes: No entry of its own
# B15: SS-15498 (antibody, V domains shown)
# VH: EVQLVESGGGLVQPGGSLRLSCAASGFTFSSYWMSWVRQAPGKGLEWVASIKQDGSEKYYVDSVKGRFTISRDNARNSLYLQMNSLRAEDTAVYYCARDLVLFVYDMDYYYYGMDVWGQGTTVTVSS
# VL: B2 VL
# notes: No entry of its own
# B16: 8A3 variant HC I107M / LC N33Y, Y35H, S57L, S61H (antibody, V domains shown)
# VH: not shown
# VL: B11 VL with N33Y
# B17: SS-15496 (antibody, V domains shown)
# VH: not shown
# VL: B11 VL with N33F
# notes: HC I107M, LC N33F, Y35H, S57L, S61H
# B18: SS-15504 (antibody, V domains shown)
# VH: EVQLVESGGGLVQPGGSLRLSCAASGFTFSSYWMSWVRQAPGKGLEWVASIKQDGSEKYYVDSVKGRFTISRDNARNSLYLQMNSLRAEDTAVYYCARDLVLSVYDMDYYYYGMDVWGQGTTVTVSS
# VL: B11 VL
# notes: HC M103S/I107M, LC Y35H, S57L, S61H
# B19: SS-15501 (antibody, V domains shown)
# VH: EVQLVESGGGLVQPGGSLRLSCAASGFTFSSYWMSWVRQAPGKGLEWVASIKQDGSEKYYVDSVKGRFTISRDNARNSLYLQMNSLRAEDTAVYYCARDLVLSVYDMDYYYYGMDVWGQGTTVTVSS
# VL: B11 VL with N33F
# B20: 8A3 variant HC M103F/I107M / LC N33Y, Y35H, S57L, S61H (antibody, V domains shown)
# VH: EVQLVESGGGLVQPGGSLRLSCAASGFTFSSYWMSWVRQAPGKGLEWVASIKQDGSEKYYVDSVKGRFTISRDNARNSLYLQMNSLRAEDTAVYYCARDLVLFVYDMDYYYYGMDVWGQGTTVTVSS
# VL: B11 VL with N33Y
# B21: SS-15508 (antibody, V domains shown)
# VH: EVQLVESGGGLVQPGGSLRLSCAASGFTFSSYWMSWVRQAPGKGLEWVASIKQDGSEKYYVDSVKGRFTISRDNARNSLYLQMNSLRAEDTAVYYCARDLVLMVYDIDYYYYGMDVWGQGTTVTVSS
# VL: B11 VL with N33F
# notes: HC WT, LC N33F, Y35H, S57L, S61H
# B22: 8A3 variant HC WT / LC N33Y, Y35H, S57L, S61H (antibody, V domains shown)
# VH: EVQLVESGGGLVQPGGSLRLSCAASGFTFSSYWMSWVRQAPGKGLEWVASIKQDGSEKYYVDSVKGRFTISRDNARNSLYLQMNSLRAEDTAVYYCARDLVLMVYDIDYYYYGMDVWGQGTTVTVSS
# VL: B11 VL with N33Y
# B23: SS-15500 (antibody, V domains shown)
# VH: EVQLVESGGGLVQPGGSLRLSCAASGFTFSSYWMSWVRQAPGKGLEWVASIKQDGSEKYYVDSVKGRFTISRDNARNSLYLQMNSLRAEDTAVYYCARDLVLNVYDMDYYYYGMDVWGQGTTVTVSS
# VL: B11 VL with N33Y
# B24: SS-15505 (antibody, V domains shown)
# VH: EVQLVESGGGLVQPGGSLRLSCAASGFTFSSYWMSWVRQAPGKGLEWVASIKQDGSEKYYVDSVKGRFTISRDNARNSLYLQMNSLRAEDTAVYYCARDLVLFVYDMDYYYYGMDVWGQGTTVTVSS
# VL: B11 VL
# notes: HC M103F/I107M, LC Y35H, S57L, S61H
# B25: 8A3 variant HC M103N/I107M / LC N33Y, Y35H, S57L, S61H (antibody, V domains shown)
# VH: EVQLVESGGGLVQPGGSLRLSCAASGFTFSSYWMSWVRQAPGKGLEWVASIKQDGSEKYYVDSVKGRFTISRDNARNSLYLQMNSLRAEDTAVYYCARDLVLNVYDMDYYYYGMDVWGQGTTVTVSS
# VL: B11 VL with N33Y
# B26: SS-15495 (antibody, V domains shown)
# VH: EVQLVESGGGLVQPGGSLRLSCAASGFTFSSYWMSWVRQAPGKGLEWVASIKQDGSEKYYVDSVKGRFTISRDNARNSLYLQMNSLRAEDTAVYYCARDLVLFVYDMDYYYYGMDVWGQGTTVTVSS
# VL: B11 VL with N33F
# notes: HC M103F/I107M, LC N33F, Y35H, S57L, S61H
# B27: SS-15506 (antibody, V domains shown)
# VH: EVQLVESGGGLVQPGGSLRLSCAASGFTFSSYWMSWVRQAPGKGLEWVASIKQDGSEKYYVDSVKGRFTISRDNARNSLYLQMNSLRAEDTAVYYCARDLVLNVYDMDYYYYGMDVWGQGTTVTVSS
# VL: B11 VL
# notes: HC M103N/I107M, LC Y35H, S57L, S61H
# B28: 8A3 variant HC M103S/I107M / LC N33Y, Y35H, S57L, S61H (antibody, V domains shown)
# VH: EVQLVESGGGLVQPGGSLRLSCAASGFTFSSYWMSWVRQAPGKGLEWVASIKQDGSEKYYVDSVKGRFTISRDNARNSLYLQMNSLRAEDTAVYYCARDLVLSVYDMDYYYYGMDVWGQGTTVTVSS
# VL: B11 VL with N33Y
# Biological target: T1, human PCSK9 (self-cleaved, mature, secreted PCSK9 comprising amino acids 31 to 692 of SEQ ID NO: 2) (human, UniProt Q8NBP7 31-692, biotinylated in the ELISAs)
# T1 construct: Limits 31-692 are stated for the immunogen; the assays only say human PCSK9; also called huPCSK9; rhu PCSK9
# Assay: SPR pH 5.5
row,estimated complex half life pH 5.5,Binder
1,20 s,B1

# Biological target: T1, human PCSK9 (self-cleaved, mature, …)
# Assay: solution equilibrium, BIAcore, pH 5.5
# Protocol: (§1) Antibody was immobilized on the second flow cell of a CM5 chip using amine coupling (reagents provided by GE Healthcare, Piscataway, N.J.) with an approximate density of 7000 RU. The first flow cell was used as a background control. […] Binding of free PCSK9 in the mixed solutions was measured by injecting over the antibody coated chip surface. One hundred percent PCSK9 binding signal on the antibody surface was determined in the absence of antibody in the solution. A decreased PCSK9 binding response with increasing concentrations of antibody in solution indicated PCSK9 was binding to the antibody, preventing PCSK9 from binding to the immobilized antibody surface. Plotting the PCSK9 binding signal versus antibody concentration, the KD was obtained from nonlinear regression of the competition curves using an n-curve one-site homogeneous binding model provided in the KinExA Pro software.
row,Kd,Binder
1,0.68 nM,B2
2,0.86 nM,B3
3,3.1 nM,B4
4,1.2 nM,B5
5,1 nM,B6
6,1.5 nM,B7
7,1.5 nM,B8
8,1.2 nM,B9
9,0.57 nM,B10
10,0.45 nM,B11
11,2.8 nM,B12
12,2.8 nM,B13

# Biological target: T1, human PCSK9 (self-cleaved, mature, …)
# Assay: SPR pH 7.4
# Protocol: (§2) In order to determine the binding kinetics at the neutral pH, the biosensor analysis was conducted at 25° C. in a HBS-P buffer system (10 mM HEPES pH 7.4, 150 mM NaCl, and 0.05% Surfactant P20) using a ProteOn XPR36 optical biosensor (Bio-Rad, Hercules, Calif.) equipped with a GLC sensor chip (Bio-Rad, Hercules, Calif.). […] This surface type provided a format for reproducibly capturing fresh analysis antibodies (ligand) after each regeneration step. […] Blank (buffer) injections were run simultaneously with the five analyte concentrations and used to assess and subtract system artifacts. […] The surface was regenerated with 10 mM glycine, pH 1.5 for 30 s, at a flow rate of 50 uL/min. The data was aligned, double referenced, and fit to a simple 1:1 binding model using the ProteOn Manager 3.1.0 version 3.1.06 © software (Bio-Rad, Hercules, Calif.).
Kd,koff,kon,Binder
0.249 nM,9.47e-05 s⁻¹,381000 M⁻¹ s⁻¹,B2
0.199 nM,5.98e-05 s⁻¹,301000 M⁻¹ s⁻¹,B14
0.534 nM,0.000163 s⁻¹,306000 M⁻¹ s⁻¹,B4
0.123 nM,4.14e-05 s⁻¹,335000 M⁻¹ s⁻¹,B15
0.134 nM,5.06e-05 s⁻¹,377000 M⁻¹ s⁻¹,B10
0.572 nM,0.000326 s⁻¹,570000 M⁻¹ s⁻¹,B16
0.292 nM,0.000194 s⁻¹,665000 M⁻¹ s⁻¹,B17
0.232 nM,8.26e-05 s⁻¹,356000 M⁻¹ s⁻¹,B18
0.804 nM,0.000578 s⁻¹,719000 M⁻¹ s⁻¹,B19
0.528 nM,0.000253 s⁻¹,480000 M⁻¹ s⁻¹,B20
1.57 nM,0.00092 s⁻¹,585000 M⁻¹ s⁻¹,B21
2.81 nM,0.00115 s⁻¹,410000 M⁻¹ s⁻¹,B22
0.0611 nM,1.98e-05 s⁻¹,325000 M⁻¹ s⁻¹,B11
0.459 nM,0.000304 s⁻¹,663000 M⁻¹ s⁻¹,B23
0.0763 nM,1.98e-05 s⁻¹,260000 M⁻¹ s⁻¹,B24
0.819 nM,0.000425 s⁻¹,519000 M⁻¹ s⁻¹,B25
0.285 nM,0.000152 s⁻¹,534000 M⁻¹ s⁻¹,B26
0.245 nM,5.89e-05 s⁻¹,240000 M⁻¹ s⁻¹,B27
1.28 nM,0.000758 s⁻¹,594000 M⁻¹ s⁻¹,B28

# Biological target: T1, human PCSK9 (self-cleaved, mature, …)
# Assay: SPR pH 7.4
# Remark: another data set of the same source
# Protocol: This surface type provided a format for reproducibly capturing fresh analysis antibodies (ligand) after each regeneration step. […] Blank (buffer) injections were run simultaneously with the five analyte concentrations and used to assess and subtract system artifacts. […] The surface was regenerated with 10 mM glycine, pH 1.5 for 30 s, at a flow rate of 50 uL/min. The data was aligned, double referenced, and fit to a simple 1:1 binding model using the ProteOn Manager 3.1.0 version 3.1.06 © software (Bio-Rad, Hercules, Calif.).
Kd,koff,kon,Binder
0.273 nM,0.000338 s⁻¹,1.24e+06 M⁻¹ s⁻¹,B1

# Biological target: T1, human PCSK9 (self-cleaved, mature, …)
# Assay: SPR pH 7.4
# Remark: another data set of the same source
# Protocol: as §2
Kd,koff,kon,Binder
0.249 nM,9.47e-05 s⁻¹,381000 M⁻¹ s⁻¹,B2
0.199 nM,5.98e-05 s⁻¹,301000 M⁻¹ s⁻¹,B14
0.534 nM,0.000163 s⁻¹,306000 M⁻¹ s⁻¹,B4
0.123 nM,4.14e-05 s⁻¹,335000 M⁻¹ s⁻¹,B15
0.134 nM,5.06e-05 s⁻¹,377000 M⁻¹ s⁻¹,B10
0.572 nM,0.000326 s⁻¹,570000 M⁻¹ s⁻¹,B16
0.292 nM,0.000194 s⁻¹,665000 M⁻¹ s⁻¹,B17
0.232 nM,8.26e-05 s⁻¹,356000 M⁻¹ s⁻¹,B18
0.804 nM,0.000578 s⁻¹,719000 M⁻¹ s⁻¹,B19
0.528 nM,0.000253 s⁻¹,480000 M⁻¹ s⁻¹,B20
1.57 nM,0.00092 s⁻¹,585000 M⁻¹ s⁻¹,B21
2.81 nM,0.00115 s⁻¹,410000 M⁻¹ s⁻¹,B22
0.0611 nM,1.98e-05 s⁻¹,325000 M⁻¹ s⁻¹,B11
0.459 nM,0.000304 s⁻¹,663000 M⁻¹ s⁻¹,B23
0.0763 nM,1.98e-05 s⁻¹,260000 M⁻¹ s⁻¹,B24
0.819 nM,0.000425 s⁻¹,519000 M⁻¹ s⁻¹,B25
0.285 nM,0.000152 s⁻¹,534000 M⁻¹ s⁻¹,B26
0.245 nM,5.89e-05 s⁻¹,240000 M⁻¹ s⁻¹,B27
1.28 nM,0.000758 s⁻¹,594000 M⁻¹ s⁻¹,B28

# Biological target: T1, human PCSK9 (self-cleaved, mature, …)
# Assay: solution equilibrium, BIAcore
# Protocol: as §1
row,KD ratio pH 5.5/pH 7.4,Binder
1,8.1,B2
2,10.4,B3
3,8.9,B4
4,8.6,B5
5,8.3,B6
6,8.8,B7
7,12.5,B8
8,7.1,B9
9,10.2,B10
10,12.9,B11
11,12.2,B12
12,9.7,B13

# Biological target: T1, human PCSK9 (self-cleaved, mature, …)
# Assay: solution equilibrium, BIAcore, pH 7.4
# Protocol: as §1
row,Kd,Binder
1,0.084 nM,B2
2,0.083 nM,B3
3,0.35 nM,B4
4,0.14 nM,B5
5,0.12 nM,B6
6,0.17 nM,B7
7,0.12 nM,B8
8,0.17 nM,B9
9,0.056 nM,B10
10,0.035 nM,B11
11,0.23 nM,B12
12,0.29 nM,B13
